The values below come from the supplement of paper PMC7877785.

This data set can be described thus: self-splicing fitness, log relative to wild type (ln ratio); higher = more splicing; Tetrahymena group I intron in knt gene, E. coli kanamycin selection, DiMSum; sequences stand for … in CUCUCU…GGAGGGAAAAGUUAUCAGGCAUGCACCUGGUAGCUAGUCUUUAAACCAAUAGAUUGCAUCGGUUUAAAAGGCAAGACCGUCAAAUUGCGGGAAAGGGGUCAACAGCCGUUCAGUACCAAGUCUCAGGGGAAACUUUGAGAUGGCCUUGCAAAGGGUAUGGUAAUAAGCUGACGGACAUGGUCCUAACCACGCAGCCAAGUCCUAAGUCAACAGAUCUUCUGUUGAUAUGGAUGCAGUUCACAGACUAAAUGUCGGUCGGGGAAGAUGUAUUCUUCUCAUAAGAUAUAGUCGGACCUCUCCUUAAUGGGAGCUAGCGGAUGAAGUGAUGCAACACUGGAGCCGCUGGGAACUAAUUUGUAUGCGAAAGUAUAUUGAUUAGUUUUGGAGUACUCGUGGUCG
In short, it runs like this: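 Pooled colonies went to amplicon sequencing on an Illumina HiSeq 2500 after six replicate transformations. The plates were LB agar with 100 μg/mL carbenicillin, 50 μM IPTG and 0.2% rhamnose, with or without 25 μg/mL kanamycin, incubated overnight at 37°C or 30°C. The E. coli BL21(DE3) library had all eight P1ex-region intron nucleotides randomised, the intron placed in the knt kanamycin-resistance gene on pET-22b(+). DiMSum fitness is the error-weighted combination of replicate fold changes, kanamycin against none, normalised to wild type.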

± gives the uncertainty stated by the source.

For the sequence ACUAAGCAAUAUUACGCUUA, the “self-splicing fitness (ln)” value is -2.54 ± 0.25 (30 °C) and -2.83 ± 0.32 (37 °C).

For ACUAAGCAAUAUUACGUCAC, the “self-splicing fitness (ln)” value is -3.64 ± 0.19 (30 °C) and -2.91 ± 0.27 (37 °C).

On to ACUAAGCAAUAUUACGUCCC, for which the “self-splicing fitness (ln)” value was -1.43 ± 0.22 (30 °C) and -1.07 ± 0.32 (37 °C).

With ACUAAGCAAUAUUACGUCGU, the “self-splicing fitness (ln)” value runs as follows: (30 °C) -3.51 ± 0.17; (37 °C) -1.16 ± 0.12.

In the case of ACUAAGCAAUAUUACGUGAG, the “self-splicing fitness (ln)” value (30 °C) is -0.615 ± 0.057 and the “self-splicing fitness (ln)” value (37 °C) was -0.636 ± 0.076.

ACUAAGCAAUAUUACGUGGG: the “self-splicing fitness (ln)” value (30 °C) was -2.98 ± 0.14 and the “self-splicing fitness (ln)” value (37 °C) was -2.81 ± 0.14.

Regarding ACUAAGCAAUAUUACGUGUG, the “self-splicing fitness (ln)” value is -2.18 ± 0.07 (30 °C) and -1.06 ± 0.076 (37 °C).

Take ACUAAGCAAUAUUACGUGUU: the “self-splicing fitness (ln)” value runs as follows: (30 °C) -3.63 ± 0.1; (37 °C) -2.2 ± 0.098.

Take ACUAAGCAAUAUUACGUUGG: the “self-splicing fitness (ln)” value is -2.95 ± 0.12 (30 °C) and -1.73 ± 0.11 (37 °C).

Consider ACUCAGCAAUAUUACGACAU, for which the “self-splicing fitness (ln)” value (30 °C) is -0.385 ± 0.011 and the “self-splicing fitness (ln)” value (37 °C) came out at 0.0786 ± 0.032.

Take ACUCAGCAAUAUUACGACUU: the “self-splicing fitness (ln)” value (30 °C) is -0.301 ± 0.054 and the “self-splicing fitness (ln)” value (37 °C) was found to be 0.0543 ± 0.073.

Take ACUCAGCAAUAUUACGAGGA: the “self-splicing fitness (ln)” value (30 °C) was -1.67 ± 0.11 and the “self-splicing fitness (ln)” value (37 °C) was -0.591 ± 0.095.

Regarding ACUCAGCAAUAUUACGAGUU, the “self-splicing fitness (ln)” value runs as follows: (30 °C) -4.72 ± 0.21; (37 °C) -2.36 ± 0.17.

With ACUCAGCAAUAUUACGAUUA, the “self-splicing fitness (ln)” value (30 °C) was -0.552 ± 0.065 and the “self-splicing fitness (ln)” value (37 °C) was -0.431 ± 0.067.

On to ACUCAGCAAUAUUACGCAUG, for which the “self-splicing fitness (ln)” value runs as follows: (30 °C) -2.09 ± 0.15; (37 °C) -2.23 ± 0.15.

Turning to ACUCAGCAAUAUUACGCCCA, the “self-splicing fitness (ln)” value (30 °C) was -1.42 ± 0.13 and the “self-splicing fitness (ln)” value (37 °C) was -0.482 ± 0.15.

For ACUCAGCAAUAUUACGCCUC, the “self-splicing fitness (ln)” value was -0.758 ± 0.095 (30 °C) and -1.13 ± 0.13 (37 °C).

Take ACUCAGCAAUAUUACGGACA: the “self-splicing fitness (ln)” value was -1.02 ± 0.1 (30 °C) and -1.06 ± 0.12 (37 °C).

With ACUCAGCAAUAUUACGGACC, the “self-splicing fitness (ln)” value is, setting by setting: (30 °C) -0.551 ± 0.13; (37 °C) 0.137 ± 0.14.

For the sequence ACUCAGCAAUAUUACGGAGU, the “self-splicing fitness (ln)” value is, setting by setting: (30 °C) -2.78 ± 0.11; (37 °C) -2.7 ± 0.18.

Consider ACUCAGCAAUAUUACGGAUC, for which the “self-splicing fitness (ln)” value runs as follows: (30 °C) -1.46 ± 0.1; (37 °C) -0.352 ± 0.11.

Regarding ACUCAGCAAUAUUACGGCAC, the “self-splicing fitness (ln)” value was -1.24 ± 0.17 (30 °C) and -0.799 ± 0.25 (37 °C).

As for ACUCAGCAAUAUUACGGCGA, the “self-splicing fitness (ln)” value runs as follows: (30 °C) -1.41 ± 0.1; (37 °C) -0.93 ± 0.12.

As to ACUCAGCAAUAUUACGUGAG, the “self-splicing fitness (ln)” value runs as follows: (30 °C) -1.55 ± 0.062; (37 °C) -0.663 ± 0.082.

As to ACUCAGCAAUAUUACGUGCC, the “self-splicing fitness (ln)” value is -0.982 ± 0.13 (30 °C) and -0.189 ± 0.12 (37 °C).

As for ACUCAGCAAUAUUACGUUGU, the “self-splicing fitness (ln)” value (30 °C) was -3.45 ± 0.11 and the “self-splicing fitness (ln)” value (37 °C) was -2.23 ± 0.13.

Take ACUGAGCAAUAUUACGAACG: the “self-splicing fitness (ln)” value is -2.48 ± 0.17 (30 °C) and -1.77 ± 0.21 (37 °C).

As for ACUGAGCAAUAUUACGACAU, the “self-splicing fitness (ln)” value runs as follows: (30 °C) -2.109 ± 0.015; (37 °C) -1.12 ± 0.034.

Turning to ACUGAGCAAUAUUACGACCU, the “self-splicing fitness (ln)” value (30 °C) was -1.57 ± 0.11 and the “self-splicing fitness (ln)” value (37 °C) was -0.583 ± 0.13.

For ACUGAGCAAUAUUACGACGU, the “self-splicing fitness (ln)” value was -1.53 ± 0.11 (30 °C) and -1.66 ± 0.15 (37 °C).

For ACUGAGCAAUAUUACGAGAA, the “self-splicing fitness (ln)” value is -2.33 ± 0.38 (30 °C) and -1.96 ± 0.32 (37 °C).

Turning to ACUGAGCAAUAUUACGAGGC, the “self-splicing fitness (ln)” value runs as follows: (30 °C) -3.07 ± 0.23; (37 °C) -2.59 ± 0.36.

Take ACUGAGCAAUAUUACGAGUG: the “self-splicing fitness (ln)” value runs as follows: (30 °C) -3.1 ± 0.12; (37 °C) -2.76 ± 0.14.

Consider ACUGAGCAAUAUUACGAUGA, for which the “self-splicing fitness (ln)” value (30 °C) was -1.9 ± 0.091 and the “self-splicing fitness (ln)” value (37 °C) was -1.59 ± 0.098.

On to ACUGAGCAAUAUUACGAUGU, for which the “self-splicing fitness (ln)” value was -2.83 ± 0.14 (30 °C) and -2.67 ± 0.2 (37 °C).

For the sequence ACUGAGCAAUAUUACGCAGC, the “self-splicing fitness (ln)” value (37 °C) was -1.7 ± 0.42.

On to ACUGAGCAAUAUUACGCCGC, for which the “self-splicing fitness (ln)” value was -3.95 ± 0.34 (30 °C) and -1.23 ± 0.49 (37 °C).

On to ACUGAGCAAUAUUACGCCGU, for which the “self-splicing fitness (ln)” value (37 °C) was -2.31 ± 0.4.
